Measured values as given in patent US20230322857A1, “RECOMBINANTLY ENGINEERED POLYPEPTIDES CAPABLE OF RECYCLING NONCANONICAL COFACTORS” (The Regents of the University of California, priority 2022, published 2023).

Columns and labels:
E. coli SHuffle strain [1] = assay: Recapitulation of growth restoration with TS-PTDH variants in SHuffle strain; format: cell-based, Escherichia coli; details: spotted onto agar selection plates
Procedure: Selection of TS-PTDH Library. A total of 50 μL pre-made SHuffle/pLZ311 or SHuffle/pLZ312 electro-competent cells were transformed with 2 μL TS-PTDH A155N-E175-A176-L208 NNK library DNA (pLZ316) via electroporation as described above. After rescue in SOC media for 1 h, cultures were combined in 10 mL 2×YT with 10 g/L glucose, 0.5% arabinose, kanamycin and ampicillin. 0.2, or 1 μL of culture was immediately taken from the culture and plated on an 2×YT agar plates with kanamycin and ampicillin. The plate was incubated at 37° C. overnight, and the number of colonies formed was counted to estimate the library size. The liquid cultures were incubated at 37° C. with shaking for 10 h. Cells (1 mL) were washed 3 times and re-suspended in M9 Buffer. Targeted serial dilutions of cells were prepared in M9 buffer and 5 μL aliquots were dispensed in series on an agar plate of M9 selection media containing 0.5 mM diamide, 5 or 1 g/L yeast extract, 10 g/L glucose, 0.5% arabinose, 0.5 mM IPTG, 10 g/L sodium phosphite, kanamycin, ampicillin, and 5 mM NMN^+. Selection plates were incubated at 37° C., and photographs were taken to document growth progress. The independent transformants sampled was calculated as 2.4×10^6 and 2.5×10^6 colonies when plated on 5 and 1 g/L yeast extract, respectively. TS-PTDH and the template of the library, TS-PTDH A155N, were cultured in the same conditions as controls. The colonies were numbered by the order of appearance. The selected cells were re-streaked on fresh agar plate with identical media and incubated until single colonies formed on the plate. Variants that cannot forma single colony may be false positives. After extracting the plasmids from each re-streaked colony, the chosen TS-PTDH variants were amplified and moved into the pQElac vector containing a N-terminal 6×His tag for protein purification and characterization. […] 2 μL of a serial dilution of cells were deposited onto a growth selection plate and grown at 37° C.

[2] = Steady-state kinetics of TS-PTDH variants with NADP^+; format: biochemical; details: 100 mM MOPS, pH 7.25, 10 mM sodium phosphite, varied cofactor concentrations; n = 3
Procedure: (§1) Purification and Characterization of TS-PTDH Variants. The E. coli BL21(DE3) strains harboring pQElac plasmids encoding the TS-PTDH or TS-PTDH variants were grown in 2×YT media with kanamycin and ampicillin at 37° C. The IPTG-inducible expression, Ni-affinity purification, and protein concentration determination was conducted as described above.
(§2) The steady-state kinetic parameters toward the coenzymes were measured by spiking purified protein into a 100 μL reaction mixture containing 100 mM MOPS, pH 7.25, 10 mM sodium Pt, and varied cofactor concentrations from 0.02 mM to 5 mM at 25° C. The kinetic parameters were measured by monitoring the […] of reduced coenzyme at 340 nm. Data were fitted to the Michaelis-Menten equation to generate estimates of KM and kcat values.

[3] = Steady-state kinetics of TS-PTDH variants with NMN^+; format: biochemical
Procedure: as §1, §2

[4] = Steady-state kinetics of TS-PTDH variants with NAD^+; format: biochemical; details: 100 mM MOPS, pH 7.25, 10 mM sodium phosphite, varied cofactor concentrations; n = 3
Procedure: as §1, §2

[5] = BNA(H)-mediated PTDH biotransformation with TsOYE; format: biochemical
Procedure: BNA(H)-Mediated PTDH Biotransformation. Reactions with BNA^+, see FIG. 10D, contained 100 mM MOPS-NaOH at pH 7.6, 10 mM KIP, 100 mM sodium phosphite, and 2% v/v DMSO. BNA^+Cl^−, prepared by refluxing equimolar amounts of nicotinamide and benzyl chloride in acetonitrile overnight, followed by precipitation with diethyl ether on ice was supplied to the reactions at final concentrations of 0, 5, 10, or 20 mM. Reactions were initiated by spiking TsOYE and the appropriate TS-PTDH variant to a final concentration of 10 μM, each. Reaction mixtures were incubated at 30° C. on a Thermomixer C (Eppendorf) with shaking at 900 rpm for 24 h, extracted with 500 μL ethyl acetate containing 5 mM n-dodecane, and analyzed by GC-FID. The cycling system with no BNA was used to determine the background activity of the cycling systems. This value was subtracted from the final levodione concentrations in the 5-, 10-, and 20-mM samples to determine the BNA(H)^− specific levodione production. Concentrations of levodione product were determined using a calibration line (0-10 mM, 6 levels, using n-dodecane as internal standard). The y-intercept of the calibration line was forced through 0.
For BNA(H)-mediated reactions, gas chromatography analyses were performed on a GC-2010 (Shimadzu, Japan) equipped with an AOC-20i auto injector and a flame ionization detector (FID), using a CP-Sil 5 column (25 m×0.25 mm×[…]). 1 μL of sample was injected with a split ratio of 100:1 and injector at 340° C. The FID was maintained at 360° C. Nitrogen was used as the carrier gas, with a linear velocity of 30 cm/s. The oven was held at 135° C. for 1 min, ramped at 15° C./min to 215° C., then 30° C./min to 345° C., and held at 345° C. for 1 min.
Expression and Purification of Proteins for BNA(H)-Mediated Biotransformation Reactions. E. coli BL21(DE3) strains were transformed with the plasmids containing the TS-PTDH variants and grown on LB-agar plates containing ampicillin at 37° C. overnight. An overnight culture, 15 mL LB supplemented with ampicillin, was inoculated with a single colony, and grown at 37° C., 170 rpm overnight. 2 L baffled shake-flasks with 250 mL of 2×YT media containing 200 μg/mL ampicillin, were inoculated with the overnight culture, grown at 37° C., 170 rpm until OD600 of ˜1.0, induced with IPTG (0.5 mM), and grown at 30° C. and 170 rpm for 24 h. Cells were harvested by centrifugation at 18,000×g, 4° C., 10 min and stored at −20° C. until purification.
The pellet was resuspended in four volumes loading buffer (50 mM sodium phosphate, 300 mM sodium chloride, 10 mM imidazole, pH 7.7), and lysed on ice by sonication (Branson sonifier 250; 15 min total, 40% duty cycle, output control 3.5, 2 mm tip). The lysate was clarified (21,000×g, 4° C., 30 min followed by 0.2 μm filtration), and loaded (1 mL/min) onto a Nickel-HisTrap FF crude (1 mL) column, washed with loading buffer (12 column volumes, CV), followed by a step with 10% elution buffer (loading buffer containing 250 mM imidazole; 12 CV). The protein was then eluted with 100% elution buffer and collected in fractions of 0.5 mL. Fractions containing protein were combined and dialyzed against ice-cold dialysis buffer (50 mM sodium phosphate, pH 7.7, 800 mL); the buffer was renewed after the first 2 h of dialysis. Following the dialysis, the protein was mixed with glycerol (20% v/v final concentration). Enzyme concentrations were estimated by the absorbance at 280 nm (non-denatured protein), using predicted extinction coefficients (wild type and LY-13: 26470, LY-7: […]; web.expasy.org/protparam/). The protein was aliquoted, flash frozen in liquid nitrogen, and stored at −80° C. until use. […]

E. coli SHuffle strain [6] = assay: GDH-Gor coupled growth rescue in SHuffle strain; format: cell-based, Escherichia coli; details: 0.5 mM diamide, NMN^+ 0, 2, 4 and 6 mM
Procedure: Culture conditions for GDH-Gor coupled growth rescue in SHuffle strain. The electro-competent cells of SHuffle harboring pLZ311 or pLZ312 were made as follows: The SHuffle cells were cultured in 200 mL SOB media with spectinomycin at 30° C. with shaking until OD600 reached 0.4-0.6. The culture was chilled on ice for 15 min and the cells were pelleted at 4° C., 4,000×g. Collected cells were washed with 10% glycerol in water (sterile, ice cold) and resuspended with 5 mL of 10% glycerol in water (sterile, ice cold), and stored as 50 μL aliquots at −80° C.
Glucose facilitator (encoded by glf) was used for uptake of unphosphorylated glucose into the cells. The co-transformation of Bs gdh and Zm glf was performed as follows: Thaw SHuffle/pLZ311 or SHuffle/pLZ312 electro-competent cells on ice, add 1 μL Bs gdh (pEK101 or pLZ210) and 1 μL Zm glf(pSM109) plasmid DNA to 50 μL competent cells, mix, and electroporate. Cells were recovered with 1 mL SOC at 37° C. with shaking for 1 h. The cells were added to 10 mL 2×YT with 10 g/L glucose, 0.5% arabinose, kanamycin, chloramphenicol, and ampicillin. After incubation at 37° C. with shaking for 10 h, 1 mL cells were washed 3 times and re-suspended in M9 buffer (1×BD Difco M9 Salts). Targeted dilutions after cells reached density of OD600 0.6 were prepared in M9 buffer and 5 μL aliquots were dispensed in series on an agar plate of M9 selection media containing 0.5 mM diamide, 1 g/L yeast extract, 10 g/L glucose, 0.5% arabinose, 0.5 mM IPTG, ampicillin, kanamycin, chloramphenicol and serial NMN concentrations of 0, 2, 4 and 6 mM. Selection plates were incubated at 37° C., and photos were taken to document growth progress.

[7] = 100 mM MOPS, pH 7.25, 10 mM sodium phosphite, varied cofactor concentrations, n = 3

| Molecule | growth restoration, co-expression with NMNH-specific Gor Ortho (E. coli SHuffle strain [1]) | Km [2] [µM] | NADP^+ kcat [2] [s⁻¹] | Km ([3]; enzyme could not be saturated, 100 mM MOPS, pH 7.25, 10 mM sodium phosphite) [mM] | increase in catalytic efficiency for NMN^+ compared to TS-PTDH (wild type enzyme) ([3]; vs TS-PTDH) [fold] | Km [4] [µM] | NAD^+ kcat [4] [s⁻¹] | activity / cycling with BNA^+ compared to wild type [5] | response of biotransformation efficiency to BNA^+ concentration ([5]; 0, 5, 10, or 20 mM BNA^+) | utilization of the BNA^+ pool relative to the wild type protein ([5]; 20 mM BNA^+ supplementation, TsOYE, 24 h) | Km [3, 7] [mM] | NMN^+ kcat [3, 7] [s⁻¹] | increased catalytic efficiency (kcat/Km) for NMN^+ compared to TS-PTDH A155N ([3]; vs parent enzyme TS-PTDH A155N) [fold] | cell growth of SHuffle strain harboring Gor Ortho with the NMN^+-reducing enzyme (E. coli SHuffle strain [6]) |
| --- | --- | --- | --- | --- | --- | --- | --- | --- | --- | --- | --- | --- | --- | --- |
| TS-PTDH A155N: Pseudomonas stutzeri phosphite dehydrogenase with A155N substitution (SEQ ID NO:3) (protein) MLPKLVITHRVHEEILQLLAPHCELITNQTDSTLTREEILRRCRDAQAMMAFMPDRVDADFLQACPELRVIGCALKGFDNFDVDACTARGVWLTFVPDLLTVPTAELAIGLAVGLGRHLRAADAFVRSGKFRGWQPRFYGTGLDNATVGFLGMGNIGLAMADRLQGWGATLQYHEAKALDTQTEQRLGLRQVACSELFASSDFILLALPLNADTLHLVNAELLALVRPGALLVNPCRGSVVDEAAVLAALERGQLGGYAADVFEMEDWARADRPQQIDPALLAHPNTLFTPHIGSAVRAVRLEIERCAAQNILQALAGERPINAVNRLPKANPAAD | restored growth at a low level | 630 ± 70 | 0.88 ± 0.08 | > 5 | ~30 | 80 ± 10 | 1.46 ± 0.13 | – | – | – | – | – | – | – |
| LY-7: phosphite dehydrogenase variant with A155N, E175W, A176G, L208V (SEQ ID NO:5) (protein) MLPKLVITHRVHEEILQLLAPHCELITNQTDSTLTREEILRRCRDAQAMMAFMPDRVDADFLQACPELRVIGCALKGFDNFDVDACTARGVWLTFVPDLLTVPTAELAIGLAVGLGRHLRAADAFVRSGKFRGWQPRFYGTGLDNATVGFLGMGNIGLAMADRLQGWGATLQYHWGKALDTQTEQRLGLRQVACSELFASSDFILLAVPLNADTLHLVNAELLALVRPGALLVNPCRGSVVDEAAVLAALERGQLGGYAADVFEMEDWARADRPQQIDPALLAHPNTLFTPHIGSAVRAVRLEIERCAAQNILQALAGERPINAVNRLPKANPAAD | – | 110 ± 10 | 0.56 ± 0.03 | – | – | 750 ± 30 | 0.71 ± 0.04 | enhanced activity for BNA^+ reduction | cofactor dose-dependent response | improved utilization of the BNA^+ pool | 1.4 ± 0.1 | 0.16 ± 0.01 | ~11 | – |
| wild type Bs GDH: wild type Bacillus subtilis glucose dehydrogenase, reduces NAD(P)^+ but not NMN^+ (protein, UniProt P12310 1-261, looked up) Glucose 1-dehydrogenase: MYPDLKGKVVAITGAASGLGKAMAIRFGKEQAKVVINYYSNKQDPNEVKEEVIKAGGEAVVVQGDVTKEEDVKNIVQTAIKEFGTLDIMINNAGLENPVPSHEMPLKDWDKVIGTNLTGAFLGSREAIKYFVENDIKGNVINMSSVHEVIPWPLFVHYAASKGGIKLMTETLALEYAPKGIRVNNIGPGAINTPINAEKFADPKQKADVESMIPMGYIGEPEEIAAVAAWLASKEASYVTGITLFADGGMTQYPSFQAGRG | – | – | – | – | – | – | – | – | – | – | – | – | – | did not support cell growth |
